According to the DeepSol protein solubility set:

Test: soluble on expression in E. coli; label from the status in PepcDB or PDB records
With “IIGGQKAKMGNFPWQVFTNIHGRGGGALLGDRWILTAAHTLYPKEHEAQSNASLDVFLGHTNVEELMKLGNHPIRRVSVHPDYRQDESYNFEGDIALLELENSVTLGPNLLPICLPDNDTFYDLGLMGYVSGFGVMEEKIAHDLRFVRLPVANPQACENWLRGKNRMDVFSQNMFCAGHPSLKQDACQGDSGGVFAVRDPNTDRWVATGIVSWGIGCSRGYGFYTKVLNYVDWIKKEMEEED” the “soluble on expression in E. coli” value was “soluble”.
With “MGSDKIHHHHHHMLSRTADHLYWMARYIERAENMARVLDVTYNMSLVPNASQSETTLWEPALQIAGGVDSYRQEYGEVTAGGVVRFLAMDTKNPSSIYSTLRSARENARSVRVTLSAETWENINALWLEFSQFVGMDLMQKGLGEFCDWVKSRSHLFRGVSFGTMLRDDAFRFLRLGTFIERADNTARLLDVKYHLLLPSGEEVGGAVDYYEWSAILRAVSAFHAYQKVFNDAIEPWKVAELLVLREDMPRSLHACFSEITPILDQLNGRHSSECRRLAGELHARLRYGRMTDIFQGGLHEFLTDFITSNNNLGAEIQRTFLNAPINGLAAETE” the “soluble on expression in E. coli” value was “not soluble”.
In the case of “MELNGKAPSRRQLNIQHWNTAEGARVLFVEARELPMFDLRVTFAAGSSQDGGTPGLAALTNAMLNEGVAGKDVTAIAEGFEGLGADFGNGSYRDMAVASLRSLSAKDKREPALKLFTEVAGKPTFPEDALKRIKNQMLAGFEYEKQNPGKIAGKALFGKLYGDHPYAHPSDGTAESITGISLAQLRAFHAKAYTGGNAVIALVGDLSRAEAEAIAAQVSAGLPKGPALAAPAQPALEHHHHHH”, the “soluble on expression in E. coli” value is reported as “soluble”.
For “MSLVPHHQPCPPASSLSAGPRGGVIMLILKNVTAVQLHPAKVQEGVDIAIENDVIVAIGDALTQRYPDASYKEMHGRIVMPGIVCSHNHFYSGLSRGIMANIAPSPDFISTLKNLWWRLDRALDEESLYYSGLICSLEAIKSGCTSVIDHHASPAYIGGSLSTLRDAFLKVGLRAMTCFETTDRNNGIKELQEGVEENIRFARQIDEAKKAATEPYLVEAHIGAHAPFTVPDAGLEMLREAVNATGRGLHIHAAEDLYDVSYSHHWYGKDLLARLAQFDLIDSKTLVAHGLYLSKDDIALLNQRDAFLVHNARSNMNNHVGYNHHLSDIRNLALGTDGIGSDMFEEMKFAFFKHRDAGGPLWPDSFAKALTNGNELMSRNFGAKFGLLEAGYKADLTICDYNSPTPLLADNIAGHIAFGMGSGSVHSVMVNGVMVYEDRQFNFDCDSIYAQARKAAASMWRRMDALAEGHHHHHH”, the “soluble on expression in E. coli” value was “soluble”.
In the case of “MLLLSGFRYFRAVGVALLFLSVSLATVRADVRPETWQVVVDAGSSKTRGILYRLSADAVTPVVEYNSKLPLARYAGVPDESGNLLIAPLLDTLERLANDQKYALEKKTVLVNVLGTAGMRELSAGQQGVIYEAVKKSILAKGWALGQVGTIDGRDEGIFAWVHLNFLKGLATSDNTLGIIEMGGASSQITFALRSPPMDKADVSQNARTVMWDGKTYSVISESLLGLGADAARTAMNKVRPQDQRCYPQGALIMKVPTTGAFDFTACDLVYDEAIAANYQSEIKKLDAIVASSNYTQTDFVGLSSLYYTLNFFNNDLPERGTLKSALEQSCQRYADIEERLRQDDSKDKYQPENKCANGVFVYDLLYDYLQLGDGRLTALKKVENMDIRWTDGFLLLGKQAPLEHHHHHH”, the “soluble on expression in E. coli” value is reported as “not soluble”.
For “MDKQLNDAPCGFLALSEEGSIIAANRTLIKILDYEPEQVIGQHMNMMLTIPAQLFCQLYFFPLLKLEHHIEEIYISLKARDGEEIPVLINAIARHDSGASVFDCVL”, the “soluble on expression in E. coli” value was “not soluble”.
In the case of “MMKHVFQKGKDTSKPVLLLLHGTGGNELDLLPLAEIVDSEASVLSVRGNVLENGMPRFFRRLAEGIFDEEDLIFRTKELNEFLDEAAKEYKFDRNNIVAIGYSNGANIAASLLFHYENALKGAVLHHPMVPRRGMQLANLAGKSVFIAAGTNDPICSSAESEELKVLLENANANVTMHWENRGHQLTMGEVEKAKEWYDKAF”, the “soluble on expression in E. coli” value is reported as “soluble”.
For “EGPLHWESTLTYTSYRDRWKERDPKVILAPYVKENDPVSAIYTLIPDGIKQAGEDTPAMPDLLPGQRKYKDVNGLDEEGNLTGKPDGKIDQADVVYLGTRAPKFTMGFSNDFRYKGFDLNIYLYASVGGYSYPYTQVEHGVYGGNGIQRLKDNNNFLADIKNRWTSDNMSSAMPSGEVNSYDSYGAPNWEKNTYLRLKSVTLGYDLSRLFKADKLKVRFYFSGQNLLTFTGYKGLDPEVENDRASYPQQKTFSFGLDVKF”, the “soluble on expression in E. coli” value was “not soluble”.
In the case of “MENMLLWLIFFTPGWTLIDGSEMEWDFMWHLRKVPRIVSERTFHLTSPAFEADAKMMVNTVCGIECQKELPTPSLSELEDYLSYETVFENGTRTLTRVKVQDLVLEPTQNITTKGVSVRRKRQVYGTDSRFSILDKRFLTNFPFSTAVKLSTGCSGILISPQHVLTAAHCVHDGKDYVKGSKKLRVGLLKMRNKSGGKKRRGSKRSRREASGGDQREGTREHLQERAKGGRRRKKSGRGQRIAEGRPSFQWTRVKNTHIPKGWARGGMGDATLDYDYALLELKRAHKKKYMELGISPTIKKMPGGMIHFSGFDNDRADQLVYRFCSVSDESNDLLYQYCDAESGSTGSGVYLRLKDPDKKNWKRKIIAVYSGHQWVDVHGVQKDYNVAVRITPLKYAQICLWIHGNDANCAYG”, the “soluble on expression in E. coli” value is reported as “not soluble”.
In the case of “MDICDISASQLATSPPPRTAIDFNSSIEESPVKRVKFSPELTKSFEETLSPTVTLVLRNNEEVIFDRYLLSFYSNYFRVLFSSKFRDSNSTTHRIRLISASDLHFLLTIPKAFEQGIKPNITLQKAIELLEPAAFLQMSIALDYISDIICKNLTHENIIKIFRLALLYHTTLAVRVWRSMVRKFQTLFATNVYLSLKENELIGLLTDKHLNLKSEDETTVVVNWIKHNSPLQSDRLTQFAQRNFSRRPQPDATKYEVIRTRQPMDAIVCFGGWASRGVAQKIEVCNTRSDRWQTCNFNYDIPNIHRAYHGIEVVEDKLIVYGGFDGIKQFQTTVLFDLSTKEWRRGANMNDKRCYVTSARVNDSYGRPLVFACGGMNGVSRLKTAEMYDYRADQWTEVANMTQMRSDGAVVTIDNKIVAIGGFDGRNIHQGGEVYDPVLDLWHPLSSNMRTRRTGCTAVSIMNQVCMIIGGFNGNRRLDSAEIYDMREGLWHPEPTLQTARSNFSACQMDTCYVYVAGGFDGQTTTKESERLDLRSKMWQALPDMAEAKSALRMVTLSDHPFLDELFDIPDDTGIVTSW”, the “soluble on expression in E. coli” value is reported as “not soluble”.
For “MDMQVVPKIGISSVVHSKHIDPGSIDVVGNDIALFDTESVISLYNGPSKLEVVSIGLCLEGSTRFNISLREFELIPGRMVIALPNQIIEHRQFSSNFRGIFFAVSKSLLESLPKVGNVLSFFFFLKDYPCFDLNLHEQEMIKEYHAFIRKRLKNKDDRYRREVVMGLMQGFFFELCNIFNSYAPDASAVVKSKSRKEYIFERFYESLVQSYQSERSVKFYADQLCLTPKHLSGVVKEVSGKTVGEWIDELVILEAKALLNSSSMNIQEIADRLNFANQSFFGKYFKHYTGMSPKEYRKSR”, the “soluble on expression in E. coli” value was “not soluble”.
With “MISVTFRQILGLVSLLCATWLYSQCRHIWLLAQDDFNEQFTNFLGEKWWSTDQLELCDDETKDTKWQKNDSICITYVYNMLPVDMEIISWAPTLVIYRNLMSPRQTASFLNFIEQRDLEIQKTSDFGTSIETTHRRANGSFIPPEDSNVTVEIKMQAQKRIPGLNLTVAEHFSALSYLPGGHYAVHYDYLDYRSKQDYDWWMNKTGNRIGTLIFVLKPAEKGGGTVFPSIGSTVRANAGDAFFWFNAQADEEKEMLSNHGGCPIYEGRKVIATIWIRAYNQRILPMAPAGSSIHASWLIPSLSNRFRPEMQTQSPVPN” the “soluble on expression in E. coli” value was “not soluble”.
For “MGSDKIHHHHHHMLISANFDGGNIEVINQDDINNVQLAIRPDEGGEFFQWFNFRLQGEVGQRYTLNIINAGQASYTKGWEDYQAAATYDRQQWFRLPTQYQDGKLTIEVELDCEMIQIAYFAPYSYERHQDLLSAVQVHPLVSLEHLGKTLDDRDMTLVKVGDEDEEKAKIWITARQHPGETMAEWLVEGLLNNLLDGDCPTAKALLDKANFYIVPNMNPDGGVRGHLRTNAKGVNLNREWQSPSLEKSPEVYHVVNRMKETGVDLYYDVHGDEGLPYVFLAGCEGVPGYNQKMADLQGDFVKALLMASADFQDEFGYDKDEPGQANLTVASNWVAQTFGCLSNTLEMPFKDNANMPDPMSGWSPERCIYLGEASLLAMLAVVDKLR”, the “soluble on expression in E. coli” value was “not soluble”.
In the case of “SATSVLCCLRCCRDGGTGHIPLKEMPAVQLDTQHMGIWGIGVATQKVNLNQIPLGRDMHSLVMRNDGALYHNNEEKNRLPANSLPQEGDVVGITYDHVELNVYLNGKNMHCPASGIRGTVYPVVYDDDSAILDCQFSEFYHTPPPGFEKILFEQQIF”, the “soluble on expression in E. coli” value is reported as “soluble”.
For “MERELAHWVERLRERAEAEGLSFPPVAFQEVGPEEMAMLAAYGGFPRRYPHWRWGSAYLHYRETYRYGLARIYELVVNTVPVQAYLLRGNPLLAQKLVVAHVYAHADFFQNNLAFKPIPKDMLAEMAHHAAYVERAMERHGARSVEEFLDLALSLENLIDPHAPYIQRPAQKEEEAPKRLPVRPYLDPYVNPAPAFPKEAEEGASPEPLPPRPTRDILGFLARHAPLAPWQKGILEIVREESLYFAPQAATKILNEGWATYWHTRLLLPLLTPEEALEFAEMQANLLAPHGLNPYRLGYHLLMEVEERWDKGRFGPEYEALPLGERLRYERPTGEGRKKLFQVRTVYTDLNFLEEFLTPEFALRRGLFALEDLPRFAEAKKALLFRLTNLGYPIVELVDANYQNRGELLLAHAYEGVELDLRKTKAVLENLHRLWGRPVHLKTVVGGKETLLSAGA”, the “soluble on expression in E. coli” value was “soluble”.
In the case of “MSLTQKPLTVVVGPPSAGKSTWVKAAAKASDLVIDLDILAPTVIGKPMWIADSRERSLVIRERNSLVAEYMRGKTAHPHCFLIDTAGSFKRRKFWLDRGADVVLLDTDKDICRARIRQCSARPESTRAGRLAAVDRWEEGHHHHHH”, the “soluble on expression in E. coli” value is reported as “soluble”.
In the case of “MGSDKIHHHHHHMNKDIPVLIFSDKLNINGDYPIIKIINEQSLPYILKHEIGGLKDWFKSRVIPTNRNHLEKLIESLQFEKKPTALDYLKLNNGFSLNDSYWIKPLDISSMYPKDLCWDKYNLYDNKFEEALGLVTFFGNNTSLGGTVNTPKVSSPELTTQGVMNKAWRRTDNKLLLYKRGNIGAANLDKEHFSESIASEIGKILGLNCIPYWTDKWHNQNCSVCEIFTNKDKGYLPFRYFLEAIEPNRKKWGFANVIEWIPKEFKQDFLDMIVFDYIIENRDRHLGNFGFIIDNNTQELLSFAPLFDQGYSLMANALEEDFNKDLKEYSESHPSFVLENKDLAKYVIERNKQRYKGFTKTLRLKIDDINWFNCPNWYKEGIKKLIFTRCEVINSI”, the “soluble on expression in E. coli” value is reported as “not soluble”.
In the case of “MEIRPTRIELIRTRRRIKLARKGLDLLKMKRSALIYEFLQISRTIRGMRENLRREVEDALNTIRTAEILEGQVALERIANMSSDSTINVDSRNVMGVVIPTLNLTYNLSILSDVYRTISVPVAINDAIDRFQRLFLNLIQILEKENALRNLLIEIDKTKRRSNAIENILIPRLEYQAKMIKMMLDERERDTFTTLKTIKKKIEAGKDEE”, the “soluble on expression in E. coli” value is reported as “not soluble”.
For “GSAGKFIVIFKNDVSEDKIRETKDEVIAEGGTITNEYNMPGMKGFAGELTPQSLTKFQGLQGDLIDSIEEDGIVTTQ”, the “soluble on expression in E. coli” value was “soluble”.
With “MGSDKIHHHHHHMMDRQFQHAMLPQPTHDELARQNFVQSLKTHIFRNISPGNKVVYEKLAKPKFEQEHQRPPQNRHEIREVMQHESYYRWTSALKRIHQEILWDAVNTSVGRQLPELIERAKDRGGELGTLTLDPNFQIPNYQKAVDIHCMPGGYHSEFTGGDVAAGATYDRGAYLYGLGWLGPLNNDMGLSIVQNYLLPEYPDFRPRKILDMGCSVGNSTLPYVDAYPDAEVHAIDVGAPMLRYGHARAEALGKRVHFWQQNAEHTNFPDESFDLVVSHILLHEIPPSAVRKVMQESYRLLAPGGIMLHLEAPLYRHLDVYTQFIFDWETANNNEPFWSAVRDLDLVTLATEAGFAPDKTFEKFVPNGAWKAKVTNGLFQNGNSGSLNTWFVVAATK” the “soluble on expression in E. coli” value was “not soluble”.
